Drawing on article PMC8666976, this text covers percent decrease in C3b binding compared to WT for one substance.

Where two headings read alike, the source gives them in different places.

Test [1] concerns the target human C3b (human) (UniProt P01024). The test is described as follows: ELISA; plates coated with human C3b at 15 nM overnight at 4°C in 50 mM NaHCO3 buffer pH 9.6, blocked with 4% BSA in PBS-T; serially diluted FH CCP 15–20 or CCP 18–20 samples (concentrated supernatants) incubated 1 h at 37°C; bound FH detected with goat antiserum to human FH.
Chain of UniProt P01024 (P01024 749-1663, chain 1 of 2): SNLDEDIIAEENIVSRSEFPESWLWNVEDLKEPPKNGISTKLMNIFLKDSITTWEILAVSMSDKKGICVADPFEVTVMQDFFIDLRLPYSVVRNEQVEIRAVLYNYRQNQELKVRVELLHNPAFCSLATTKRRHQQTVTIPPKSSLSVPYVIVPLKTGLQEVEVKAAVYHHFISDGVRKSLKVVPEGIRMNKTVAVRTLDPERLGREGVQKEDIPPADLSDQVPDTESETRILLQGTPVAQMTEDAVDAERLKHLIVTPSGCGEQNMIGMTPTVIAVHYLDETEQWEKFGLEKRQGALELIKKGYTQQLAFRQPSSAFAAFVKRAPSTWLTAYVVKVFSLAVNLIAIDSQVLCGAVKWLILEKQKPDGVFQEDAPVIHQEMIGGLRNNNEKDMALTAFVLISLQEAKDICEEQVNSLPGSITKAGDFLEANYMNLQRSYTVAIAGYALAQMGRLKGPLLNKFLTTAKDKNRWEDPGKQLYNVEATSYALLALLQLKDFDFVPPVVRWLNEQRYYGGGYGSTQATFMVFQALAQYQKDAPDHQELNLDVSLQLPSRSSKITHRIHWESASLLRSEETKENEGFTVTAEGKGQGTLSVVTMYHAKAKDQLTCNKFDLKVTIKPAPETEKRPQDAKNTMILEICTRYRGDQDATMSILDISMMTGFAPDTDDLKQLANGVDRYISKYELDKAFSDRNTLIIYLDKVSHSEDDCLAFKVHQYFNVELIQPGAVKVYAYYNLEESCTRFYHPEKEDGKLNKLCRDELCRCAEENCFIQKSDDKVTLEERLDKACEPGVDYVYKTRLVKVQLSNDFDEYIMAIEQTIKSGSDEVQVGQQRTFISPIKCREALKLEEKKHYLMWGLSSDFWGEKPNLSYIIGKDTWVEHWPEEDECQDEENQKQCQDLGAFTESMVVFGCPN
Chain of UniProt P01024 (P01024 749-1663, chain 2 of 2): as the sequence (P01024 749-1663, chain 1 of 2) above
Test [2] has the same target. The test is described as above. The source holds these as a separate data set.

As for “Factor H CCP 15–20 fragment, variant T956M (domain or fragment)”, the results for the percent decrease in C3b binding compared to WT in test [1] and in test [2] were 35% and 30%, respectively.
